Experimental findings from article PMC2800223 are described below.

This series concerns the target GST-HuD (UniProt P26378). The series can be described thus: filter binding.

Chain of GST-HuD (P26378 whole entry): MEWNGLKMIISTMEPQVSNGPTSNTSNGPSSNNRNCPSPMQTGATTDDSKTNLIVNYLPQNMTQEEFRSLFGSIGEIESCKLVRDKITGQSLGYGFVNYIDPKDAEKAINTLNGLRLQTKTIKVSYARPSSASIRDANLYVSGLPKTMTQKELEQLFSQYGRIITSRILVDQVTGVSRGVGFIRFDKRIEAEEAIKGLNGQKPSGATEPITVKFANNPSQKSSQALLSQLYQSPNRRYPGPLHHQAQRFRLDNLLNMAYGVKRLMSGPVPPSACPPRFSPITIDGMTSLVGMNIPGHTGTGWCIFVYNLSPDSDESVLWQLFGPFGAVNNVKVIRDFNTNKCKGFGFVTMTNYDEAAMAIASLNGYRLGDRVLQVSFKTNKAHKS

Regarding “UUUUGUUUUGUUU [motif 2 oligoribonucleotide]”, the Kd (usually a measure of binding affinity in units of concentration) turned out to be 6.9 nM. Next, “CCCUCCCUCUCUC [motif 1 oligoribonucleotide]”: 27.3 nM.
